How the values were obtained:
[1] = system: HCMV protease; assay: Dependence of protease specific activity on temperature, enzyme and glycerol concentrations (dilution); type: biochemical, human cytomegalovirus
Method: Dependence of Protease Specific Activity on Enzyme and Glycerol Concentrations
Dilution of a concentrated solution of HCMV protease produces a time-dependent change in activity to a new, lower level. The rate and extent of the change in protease activity is a function of temperature. […] At temperatures above 20° C., the change in activity (t1/2 ≤30 min) upon enzyme dilution is such that an accurate assessment of activity requires a rapid assay (ca. 1 min).
The specific activity of the HCMV protease increases at higher enzyme and glycerol concentrations. […] It can be shifted back to the higher activity seen for 20% glycerol by addition of an equal volume of buffer containing 30% glycerol to produce a solution containing 20% glycerol, followed by further incubation. Thus, the dependence of HCMV protease activity on enzyme and glycerol concentrations is reversible.
The dependence of HCMV protease activity on enzyme concentration can be interpreted in terms of a monomer-dimer equilibrium wherein only the dimeric form of the enzyme is active.

[2] = system: HCMV protease; assay: Analytical centrifugation, velocity sedimentation of HCMV protease; type: physicochemical, human cytomegalovirus; conditions: 20 mM (monomer equivalents), 20° C.
Excerpt: Analytical Centrifugation
The quaternary state of the HCMV protease was characterized by sedimentation velocity measurements. […] An approximate solution of the Lamm equation fits directly to the data to obtain the sedimentation coefficient, S20,w, the diffusion coefficient, D20,w, and by use of the Svedberg relation, the molecular weight. For both samples good fits are found for a single sedimenting species. In the absence of glycerol the molecular weight obtained is 29.7 kDa which is close to the molecular weight of a monomeric HCMV protease. […] The increase in S20,w and the decrease D20,w shown in Table 1 are both consistent with the existence of a stable dimeric protease in 20% glycerol.
^α Samples were loaded at 20 mM (monomer equivalents) and
sedimentation was conducted at 20° C. Data shown in brackets are
the 95% confidence limits.

[3] = system: HCMV protease; assay: Activity assay of eluted size exclusion peaks at 0° C.; type: biochemical, human cytomegalovirus
Method: Assignment of the early (55 kDa) and late (33 kDa) elution peaks in FIG. 1 as dimer and monomer, respectively, allows the estimation of a Kd for dimerization. […] The maximum fraction of dimeric protease extrapolated from FIG. 2 is 0.92. In separate experiments using protease at a loading concentration of 100 mM, the maximum fraction of dimeric protease is more than or equal to 0.95. […] The same analysis applied to enzyme pre-equilibrated in 10% glycerol produces a […]

[4] = system: HCMV protease; assay: Kinetic assays of monomeric form; type: biochemical, human cytomegalovirus; conditions: ambient or higher temperatures
Method: For this reason, the activity of this protease has been erroneously believed to be very low. […] This physiochemical phenomenon is governed by thermodynamic principles. Due to the high activation energy required for dissociation, the HCMV protease can be "frozen" in its active, dimeric form at about 0° C., thus enabling sensitive detection of inhibitors of this enzyme. […] The existence of the HCMV protease has been reported, e.g., see Pinko, et al., J. Biol. Chem. 270, 23634 (1995). Assays for the catalytic activity of this enzyme have been described, albeit the reported kinetic parameters were substantially lower than those measured by applicants. […] This approach affords an assay for the activity of the protease at low concentration (≤20 nM), thus permitting detection of weak inhibitors or strong inhibitors at low concentration.

[5] = system: wild-type HCMV protease; assay: Stability of purified wild-type enzyme at pH 5.5 and return of activity at pH 7.5; type: physicochemical, human cytomegalovirus
Method: The wild-type HCMV protease was purified similarly. To avoid self-proteolysis, the protein obtained from the first anion exchange step was folded and dialyzed as above, but in the absence of glycerol. The sample was then acidified to pH 5.5 with MES, applied to a cation exchange column in 50 mM MES, 1 mM EDTA, 1 mM DTT, pH 5.5, and eluted with a sodium chloride gradient. […] Enzyme preparations were greater than 95% pure by SDS PAGE and gave the expected amino acid analysis. The N-terminal 5 residues of both enzymes were MTMDE, showing retention but defonnylation of the initial N-formyl methionine. Electrospray mass spectrometry indicated a single species within 10 a.m.u. of the expected mass. The concentrations of stock enzyme solutions were determined by quantitative amino acid analysis.

HCMV protease: N-terminal 256 amino acid protease domain of HCMV strain AD169, recombinantly expressed in E. coli
change in protease activity upon dilution ([1]; 0° C.): no significant change is observable for a period of hours | time for active form of the enzyme to reach equilibrium after dilution ([1]; 10% and 20% glycerol samples): ≤ 1.5 h | activity in 10% glycerol compared with 20% glycerol ([1]; 10% vs 20% glycerol (v/v)): lower than that incubated in 20% glycerol | decrease in protease activity upon dilution ([1]; 37° C.): occurs within minutes | specific activity as enzyme concentration is lowered ([1]; after dilution, incubations of 1.5 hr and 3.5 hr): tends toward zero as its concentration is lowered | t1/2 of change in activity upon enzyme dilution ([1]; temperatures above 20° C.): ≤ 30 min | diffusion coefficient D20,w ([2]; 0% glycerol): 8.34 cm^2 10^7 | sedimentation coefficient S20,w ([2]; 0% glycerol): 2.78 S | diffusion coefficient D20,w ([2]; 20% glycerol (v/v)): 6.57 cm^2 10^7 | sedimentation coefficient S20,w ([2]; 20% glycerol (v/v)): 3.59 S

dimer: early (55 kDa) elution peak of HCMV protease, dimeric form
hydrolytic activity in eluted dimer peak [3]: more than 50 -fold of detectable levels

monomer: late (33 kDa) elution peak of HCMV protease, monomeric form
activity in eluted monomer peak [3]: no detectable activity | activity of monomeric form as gauged by kinetic assays [4]: inactive

wild-type HCMV protease: recombinant wild-type HCMV protease
return of activity following dilution ([5]; dilution from pH 5.5 to pH 7.5): returned to full activity | stability of wild-type enzyme ([5]; pH 5.5): stable at pH 5.5

— patent publication US5891661A, “Low temperature assay for active HCMV protease in dimeric form” (Merck & Co., Inc., priority 1997, dated 1999)
